Data from PMC10519987.

Columns and labels:
[1] = target: carboxy-terminal domain of Saccharomyces cerevisiae RNA polymerase II subunit RPB1 (yCTD) (Saccharomyces cerevisiae); test: dynamic light scattering + microscopy; tag-free CTD alone, no crowding agents; 25 mM HEPES, 1.0 mM TCEP, pH 7.4 (also pH 6.2), 50-1000 mM NaCl, rising temperature; self-coacervation into droplets
[2] = target: carboxy-terminal domain of human RNA polymerase II subunit RPB1 (hCTD) (human) (UniProt P24928); test: as above

Substance | minimal concentration of droplet formation [1] | minimal concentration of droplet formation [2]
carboxy-terminal domain of Saccharomyces cerevisiae RNA polymerase II subunit RPB1 (yCTD) (domain or fragment) | 100 µM | –
carboxy-terminal domain of human RNA polymerase II subunit RPB1 (hCTD) (from UniProt P24928 1593-1970) (domain or fragment) | – | 25 µM
